How the values were obtained:
GroEL [1] = molecular target: T1, GroEL (E. coli, UniProt P0A6F5 1-548)
[2] = molecular target: P. falciparum cpn20 (P. falciparum); assay: AUC; sedimentation equilibrium, 12,000 rpm, 20°C, 20 mM Tris-HCl pH 7.4, 200 mM NaCl, read at 280 nm after 10, 12 and 14 hrs; with sedimentation velocity at 35,000 rpm, 0.5 mg/ml
GroEL (E. coli) = GroEL (E. coli) (UniProt P0A6F5)
[3] = molecular target: the molecule itself; assay: AUC; sedimentation equilibrium, 12,000 rpm, 20°C, 20 mM Tris-HCl pH 7.4, 200 mM NaCl, read at 280 nm after 10, 12 and 14 hrs; with sedimentation velocity at 35,000 rpm, 0.5 mg/ml
GroEL [4] = molecular target: T1, GroEL; assay: cell-based or functional assay

GroES (from UniProt P0A6F9 1-97) (natural protein)
protomer ratio of co-chaperonin to GroEL required for half maximal refolding yield of urea-denatured MDH (10 µM GroEL, 0.16 to 20 µM co-chaperonin, 30 minutes) (co-chaperonin to GroEL protomer ratio) (GroEL [1]): 0.125

P. falciparum cpn20 (natural protein)
stoichiometry N (subunits in the oligomer) [2]: 4 | protomer ratio of co-chaperonin to GroEL required for half maximal refolding yield of urea-denatured MDH (10 µM GroEL, 0.16 to 20 µM co-chaperonin, 30 minutes) (co-chaperonin to GroEL protomer ratio) (GroEL (E. coli)): 0.125

B1: A. thaliana cpn20 (natural protein, UniProt O65282 51-253, looked up)
chain: AASVVAPKYTSIKPLGDRVLVKIKEAEEKTLGGILLPSTAQSKPQGGEVVAVGEGRTIGKNKIDITVPTGAQIIYSKYAGTEVEFNDVKHLILKEDDIVGILETEDIKDLKPLNDRVFIKVAEAEEKTAGGLLLTETTKEKPSIGTVIAVGPGSLDEEGKITPLPVSTGSTVLYSKYAGNDFKGKDGSNYIALRASDVMAILS
notes: cpn20 (20 kDa double-domain co-chaperonin of the chloroplast) from A. thaliana, At5g20720; probably the mature protein without the transit peptide (predicted tetramer 90 kDa); also called At-cpn20; At-Cpn20; source: bacterial expression, purified as previously described [23]
stoichiometry N [3]: 4 subunits in the oligomer | protomer ratio of co-chaperonin to GroEL required for half maximal refolding yield of urea-denatured MDH (10 µM GroEL, 0.16 to 20 µM co-chaperonin, 30 minutes) (GroEL [4]): ~0.125 co-chaperonin to GroEL protomer ratio
